Experimental data from PMC8034616.
Residue numbers refer to the chain shown, from its start.

Experiments:
[1] = test system: T1, H-NS A2 S2A (Shewanella oneidensis MR-1), ORF:b65510ad; assay: EMSA
T1 sequence: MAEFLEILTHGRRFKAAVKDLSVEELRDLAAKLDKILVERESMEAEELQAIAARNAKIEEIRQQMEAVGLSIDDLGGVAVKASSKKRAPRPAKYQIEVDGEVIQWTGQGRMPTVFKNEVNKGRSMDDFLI

[2] = test system: T2, H-NS A42 S42A (Shewanella oneidensis MR-1), ORF:b65510ad; assay: EMSA
T2 sequence: T1 sequence with A2S, S42A

[3] = test system: T3, H-NS A71 S71A (Shewanella oneidensis MR-1), ORF:b65510ad; assay: EMSA
T3 sequence: T1 sequence with A2S, S71A

[4] = test system: T1, H-NS A2 S2A (Shewanella oneidensis MR-1), ORF:b65510ad; assay: analytical ultracentrifugation
[5] = test system: T2, H-NS A42 S42A (Shewanella oneidensis MR-1), ORF:b65510ad; assay: analytical ultracentrifugation
[6] = test system: T3, H-NS A71 S71A (Shewanella oneidensis MR-1), ORF:b65510ad; assay: analytical ultracentrifugation

Measured: binding

GATTTTCTAGTGACAGAAGGTTTTAGCGTTGATAATGCCAAATATGCTGAATTATTTTTGAGACCGAGTAAATTTCTTAGGGGACCAAAAAAACGCATATAATACAATGGATAATGCAATTTAGGTGAGCAAAGGGGACCGTTTTTACCCCGTTTATTCATGCTTCATAACCATCTAATCTCAGGGTTGTAGACGTTTATTCACAACTCTGAGGACGATTATGAACACAACTCTCAC (double strand) [alpA promoter (PalpA)]
binds: [1] | [2] | [3] | [4] | [5] | [6]
